Results from article PMC11087509 (2024).
Where no end group is shown, it is not given here. [ ]: non-standard residue; d: D form. Gu = N-terminal tetramethylguanidine; Orn = NCCC[C@H](N)C(=O)O

Tests used:
[1] = molecular target: purified E. coli 50S ribosomal subunit (E. coli (endogenous in MRE600), UniProt P60723 1-201; P61175 1-110; P0ADZ0 1-100; P0A7M6 1-63; P0A7J3 1-165); test: FP
[2] = molecular target: purified E. coli 30S ribosomal subunit (E. coli (endogenous in MRE600)); test: FP
[3] = molecular target: T1, purified E. coli 70S ribosome (E. coli (endogenous in BW25113), UniProt P60723 1-201; P61175 1-110; P0ADZ0 1-100; P0A7M6 1-63; P0A7J3 1-165); test: FP
[4] = molecular target: T1, purified E. coli 70S ribosome; test: FP; competition with cf-Api88
[5] = molecular target: T1, purified E. coli 70S ribosome; test: FP; competition with cf-Api88; remark: listed apart in the source

Binder | Kd [1] | Kd [2] | Kd [3] | Ki [4] | IC50 [5]
{5(6)‑carboxyfluorescein}-VDKPPYLPRPRPPR[dR]IYN[dR]-NH2 [cf-Onc112 (5(6)-carboxyfluorescein-labeled Onc112, VDKPPYLPRPRPPRrIYNr-NH2)] | 0.05 µM | 1.14 µM | 0.06 µM | – | –
Gu-[Orn](5(6)‑carboxyfluorescein)NNRPVYIPRPRPPHPRL-NH2 [cf-Api88 (5(6)-carboxyfluorescein-labeled Api88, Gu-ONNRPVYIPRPRPPHPRL-NH2)] | – | 14.3 µM | – | – | –
VDKPPYLPRPRPPR[dR]IYN[dR]-NH2 [Onc112 (VDKPPYLPRPRPPRrIYNr-NH2)] | – | – | – | 1.87 µM | 9.8 µM
Gu-[Orn]NNRPVYIPRPRPPHPRL-OH [Api137 (Gu-ONNRPVYIPRPRPPHPRL-OH)] | – | – | – | 3.03 µM | 15.9 µM
Gu-[Orn]NNRPVYIPRPRPPHPRL-NH2 [Api88 (Gu-ONNRPVYIPRPRPPHPRL-NH2)] | – | – | – | 2.45 µM | 12.8 µM
Gu-[Orn](5(6)‑carboxyfluorescein)NNRPVYIPRPRPPHPRL-OH [cf-Api137 (5(6)-carboxyfluorescein-labeled Api137, Gu-ONNRPVYIPRPRPPHPRL-OH)] | – | 20.2 µM | – | – | –
